One molecule from article PMC8052261 can be followed below.

The target in the series is DDX3X helicase core WT (human, UniProt O00571 132-607). In words: fluorescence polarization. (In fluorescence polarisation assays a small probe gives low polarisation when free and higher when bound to something large.)
DDX3X helicase core WT, sequence (O00571 132-607): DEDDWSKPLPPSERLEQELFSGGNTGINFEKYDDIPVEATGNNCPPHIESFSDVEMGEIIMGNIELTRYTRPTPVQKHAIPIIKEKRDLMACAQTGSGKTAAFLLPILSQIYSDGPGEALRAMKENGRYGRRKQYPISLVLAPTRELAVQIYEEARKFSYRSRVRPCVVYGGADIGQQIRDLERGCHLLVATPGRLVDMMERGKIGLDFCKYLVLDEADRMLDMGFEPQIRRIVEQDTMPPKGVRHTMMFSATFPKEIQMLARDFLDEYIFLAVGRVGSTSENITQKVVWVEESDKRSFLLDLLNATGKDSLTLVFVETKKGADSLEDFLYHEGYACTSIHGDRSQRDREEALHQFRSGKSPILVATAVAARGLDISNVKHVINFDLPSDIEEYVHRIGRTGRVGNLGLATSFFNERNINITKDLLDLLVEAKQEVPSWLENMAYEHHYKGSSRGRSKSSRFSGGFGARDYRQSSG

Consider UCUCUCUCUCUCUCUCUCUC (ssRNA) [(UC)10], for which the binding result was “no binding”.
